The test deals with human membrane attack complex (MAC), C5b-9 complex (human) (UniProt P01031). The test can be described thus: cell-based or functional assay.

B1: human CD59, glycosylphosphatidylinositol (GPI)-anchored membrane protein (protein, UniProt P13987 26-102, looked up)
chain: LQCYNCPNPTADCKTAVNCSSDFDACLITKAGLQVYNKCWKFEHCNFNDVTTRLRENELTYYCCKKDLCNFNEQLEN
modifications: GPI anchor at Asparagine 77 (mature numbering)
As for B1, the complement mediated cell lysis (PI uptake, FACS; hepa-1c1c7 cells, 1000 vp/cell AdCAGCD59, 1% NHS) is 12.3%; the fold reduction of complement mediated cell lysis turned out to be 8 fold; the inhibition of cell lysis at 250 vp/cell of AdCAGCD59 is greater than 50%; the inhibition of cell lysis at 500 vp/cell of AdCAGCD59 was greater than 70%. Further, the reduction in MAC immunofluorescence intensity on corneal endothelium was determined as 86%, the reduction in MAC immunofluorescence on eyecups at 7.5 min NHS treatment was found to be 68%, the reduction in MAC immunofluorescence on eyecups at 15 min NHS treatment was determined as 56% and the reduction in mean MAC immunofluorescence intensity on RPE of eyecup tissues was 55%.

Values taken from patent US20110015136A1.
